Like-named read-outs stand apart in the source and are kept apart here.
Key:
Experiment in all cases: ITC
[1] = biological target: PWWP domain of dP75 (residues 8-91) (Drosophila)
[2] = biological target: dP75 IBD-containing C-terminus region (residues 209-445) (Drosophila)
[3] = biological target: dP75 IBD-containing C-terminus region (residues 209-445) (Drosophila); remark: listed apart in the source

H3K36me3 peptide
Kd [1]: > 500 µM

Jil-1 peptide from the proximal site (…; residues 984-1004)
Kd [2]: 0.8 µM

KREENFYGFSK [Jil-1 peptide at the distal site (…; residues 1102-1112)]
Kd [3]: 120 µM
